This is an account of results in paper PMC12669776.

Assay in all cases: EMSA
In general terms: In EMSA bound probe runs differently from free probe, usually more slowly.

For data set [1], the system named is PRC2-AEBP2L mt1A2A-JARID2 E37A;E38A;E39A;E40A;E41A;E42A;E43A;E44A;E45A;E46A;E47A;E48A;E95A;D96A;E97A;D98A;E99A;E100A;E101A;D102A;D103A;E104A;E105A;E106A;E107A;D108A;E109A (Homo sapiens), Q6ZN18-2+Q92833+Q15910-2+Q15022+O75530+Q09028. Conditions: 2.5 mM Mg2+, 100 mM NaCl; CpG24 EMSA/FA: 50 mM Tris pH 7.5, 100 mM KCl (FA 25/50/100), 0.05% NP40, 0.1 mg/ml BSA, 2 mM 2-ME, 30 C; CpG46 FA: 20 mM Tris pH 8.0, 100 mM NaCl, 0.1 mM ….

Data set [2] relates to PRC2-AEBP2L(TEV)-JARID2 cleaved with TEV (Homo sapiens). Particulars: with TEV; Hill 2.7 ± 0.4; CpG24 EMSA/FA: 50 mM Tris pH 7.5, 100 mM KCl (FA 25/50/100), 0.05% NP40, 0.1 mg/ml BSA, 2 mM 2-ME, 30 C; CpG46 FA: 20 mM Tris pH 8.0, 100 mM NaCl, 0.1 mM ….
The test system of data set [3] is PRC2-AEBP2L(TEV)-JARID2, uncleaved (Homo sapiens). Conditions: no TEV; Hill 2.4 ± 0.2; CpG24 EMSA/FA: 50 mM Tris pH 7.5, 100 mM KCl (FA 25/50/100), 0.05% NP40, 0.1 mg/ml BSA, 2 mM 2-ME, 30 C; CpG46 FA: 20 mM Tris pH 8.0, 100 mM NaCl, 0.1 mM ….
For data set [4], the system named is PRC2-AEBP2L-JARID2 wild-type (Homo sapiens), Q6ZN18-2+Q92833+Q15910-2+Q15022+O75530+Q09028. Particulars: 2.5 mM Mg2+, 100 mM NaCl; CpG24 EMSA/FA: 50 mM Tris pH 7.5, 100 mM KCl (FA 25/50/100), 0.05% NP40, 0.1 mg/ml BSA, 2 mM 2-ME, 30 C; CpG46 FA: 20 mM Tris pH 8.0, 100 mM NaCl, 0.1 mM ….

Turning to NCP182, the Kd was 15.6 nM in data set [1], 18.7 nM in data set [2], 24.8 nM in data set [3] and 33 nM in data set [4].

For orientation: Kd means the equilibrium constant for the complex coming apart.
